PMC4199913 (The FEBS journal, 2014)

B1: MaTrxR (Methanosarcina acetivorans C2A) (protein)
chain: MNSFLFSGGNMYDLIIIGGGPAGLAAGIYAVRFGLDTLVLEKSEISGQISMSDIVENYPGFPSISGLELMEKYRTHAQEVGVKTKITEVLSVRTEGAKKIVSTDSGDLEAKTLIIATGANPKHLGVPGEKEFISKGVSYCAICDGPFFKNKTVVVVGGGNSAVTDALLLSKVAQNVYLIHRRDRLKAAKVLQDRALATPNIEFILNTLVQEIAGSREGVKKVEKVILQDLNSKESRELSTNGVFIYVGIQPNTEFVNVEKNNEGFIITNRWMETSEKGIYAAGDCRDTPIWQLVAAVRDGAIAATAANEYIESLK

Tests used:
MaTrx7 = MaTrx7 (Methanosarcina acetivorans, UniProt Q8TR15); assay: turbidimetric insulin reduction, […] nm; assay type: biochemical; details: 0.33 mM DTT, 0.13 mM insulin, 100 mM KPO4 pH 6.8, anaerobic
MaTrx2 = MaTrx2 (Methanosarcina acetivorans, UniProt Q8TL30); assay: turbidimetric insulin reduction, […] nm; assay type: biochemical; details: 0.33 mM DTT, 0.13 mM insulin, 100 mM KPO4 pH 6.8, anaerobic
MaTrx6Δsp = MaTrx6Δsp (Methanosarcina acetivorans, UniProt Q8TIA1); assay: turbidimetric insulin reduction, […] nm; assay type: biochemical; details: 0.33 mM DTT, 0.13 mM insulin, 100 mM KPO4 pH 6.8, anaerobic
purified protein [1] = substrate: NC(=O)C1=CN([C@@H]2O[C@H](COP(=O)(O)OP(=O)(O)OC[C@H]3O[C@@H](n4cnc5c(N)ncnc54)[C@H](OP(=O)(O)O)[C@@H]3O)[C@@H](O)[C@H]2O)C=CC1; assay: purified protein; assay type: biochemical, Methanosarcina acetivorans; details: 1 mM DTNB, 0.5 µM MaTrxR, 50 mM Tris-HCl 150 mM NaCl pH 7.2, anaerobic
purified protein [2] = substrate: NC(=O)C1=CN([C@@H]2O[C@H](COP(=O)(O)OP(=O)(O)OC[C@H]3O[C@@H](n4cnc5c(N)ncnc54)[C@H](O)[C@@H]3O)[C@@H](O)[C@H]2O)C=CC1; assay: purified protein; assay type: biochemical, Methanosarcina acetivorans; details: 1 mM DTNB, 0.5 µM MaTrxR, 50 mM Tris-HCl 150 mM NaCl pH 7.2, anaerobic

Molecule	turbidimetric insulin reduction, 650 nm (MaTrx7)	turbidimetric insulin reduction, 650 nm (MaTrx2)	turbidimetric insulin reduction, 650 nm (MaTrx6Δsp)	Km (purified protein [1]) [µM]	kcat (purified protein [1]) [s⁻¹]	kcat/Km (purified protein [1]) [M⁻¹ s⁻¹]	Km (purified protein [2]) [µM]	kcat (purified protein [2]) [s⁻¹]	kcat/Km (purified protein [2]) [M⁻¹ s⁻¹]
OC(CS)C(O)CS (stereo not drawn) [DTT]	All three purified MaTrxs exhibited both DTT- and lipoamide-dependent insulin reduction activity	All three purified MaTrxs exhibited both DTT- and lipoamide-dependent insulin reduction activity	All three purified MaTrxs exhibited both DTT- and lipoamide-dependent insulin reduction activity	–	–	–	–	–	–
B1	–	–	–	6.3 ± 0.5	0.65	103000	736 ± 57	0.817	1120
